Results on five molecules are retold here after patent US20070065439A1 (Amgen, published 2007).

In assay [1] the target is T1, Recombinant human IL-1beta (rhIL-1b) (human, UniProt P01584 117-269). The experiment in a line: cell-based or functional assay.
In assay [2] the target is T1, Recombinant human IL-1beta (rhIL-1b). The experiment in a line: cell-based or functional assay. The source holds these as a separate data set.
Assay [3] shares this target. The experiment in a line: cell-based or functional assay. This is another data set of the same source.
Assay [4] has the same target. The experiment in a line: KinExA, triple curve analysis.
Assay [5] has the same target. Nature of the assay: KinExA, single KD-controlled titration. In general terms: Kinetic exclusion samples the free partner from a solution-phase mixture.
Assay [6] has the same target. The experiment in a line: cell-based or functional assay. This is another data set of the same source.
For assay [7] the target is unchanged. The experiment in a line: KinExA direct kinetic method.
Assay [8] has the same target. Nature of the assay: calculated as kon x KD from KinExA.
Assay [9] addresses T2, IL-1β R11A mutant (human, UniProt P01584 117-269).
T2 construct: site-directed mutant
Nature of the assay: binding to site-directed IL-1β mutants.

For assay [10], the target named is T3, IL-1β H30A mutant (human, UniProt P01584 117-269).
T3 construct: site-directed mutant
The experiment in a line: binding to site-directed IL-1β mutants.

Assay [11] has as its target T1, Recombinant human IL-1beta (rhIL-1b). Nature of the assay: Biacore, Low Resolution screen; complex kinetics. (In general: Surface plasmon resonance follows binding to a sensor surface in real time, without labels.)
The target in the next assay is T4, IL-1β R4A mutant (human, UniProt P01584 117-269).
T4 construct: site-directed mutant
The experiment in a line: binding to site-directed IL-1β mutant; X = abrogation of binding.

Assay [12] concerns the target T1, Recombinant human IL-1beta (rhIL-1b). Nature of the assay: Biacore high-res, mAb amine-coupled, 23C, long association and dissociation, IL-1β 55 pM.
Assay [13] shares this target. Nature of the assay: Biacore, Medium Resolution; IL-1β in solution; medium-resolution Biacore; complex kinetics.
Assay [14] shares this target. Nature of the assay: Biacore, Medium Resolution; complex kinetics; IL-1β in solution; medium-resolution Biacore; complex kinetics.
For assay [15] the target is unchanged. Nature of the assay: Biacore low-res, mAb captured, 25C; IL-1β in solution (118 nM) over captured mAb; low-resolution Biacore, 25 C; poor fit to 1:1 model.
Assay [16] shares this target. Nature of the assay: Biacore low-res, mAb captured, 25C; poor fit to 1:1 model; IL-1β in solution (118 nM) over captured mAb; low-resolution Biacore, 25 C; poor fit to 1:1 model.
Assay [17] has the same target. Nature of the assay: Biacore, Low Resolution screen.
The target of assay [18] is T2, IL-1β R11A mutant. The experiment in a line: binding to site-directed IL-1β mutant; X = abrogation of binding.
Assay [19] has as its target T3, IL-1β H30A mutant. Described as above.
For assay [20], the target named is T1, Recombinant human IL-1beta (rhIL-1b). The experiment in a line: Biacore, Medium Resolution; IL-1β in solution; medium-resolution Biacore.
For assay [21] the target is unchanged. Nature of the assay: Biacore low-res, mAb captured, 25C; IL-1β in solution (118 nM) over captured mAb; low-resolution Biacore, 25 C.
Assay [22] shares this target. Nature of the assay: KinExA, dual curve analysis.
Assay [23] has the same target. Nature of the assay: Biacore high-res, mAb amine-coupled, 23C.

B1: 9.5.2 IgG2 (antibody, V domains shown)
VH: EVQLVESGGGLVKPGRSLRLSCTGSGFTFGDYALNWFRQAPGMGLEWVGFIRGKAYGGTTEYAASVKGRFTISRDDSKSIAYLQMNSLKTEDTAVYYCNREVEYCRSSENYCYGMDVWGQGTTVTVS
VL: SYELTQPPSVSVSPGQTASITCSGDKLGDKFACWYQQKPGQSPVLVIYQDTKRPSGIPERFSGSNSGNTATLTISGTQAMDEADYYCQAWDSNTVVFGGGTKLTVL
notes: also called mAb 9.5.2 (IgG2 isotype); 9.5.2 IgG2λ
Consider B1, for which the “EC50, inhibition of IL-1β-induced IL-6 production in MRC-5 cells” value (shortened to “EC50, inhibition … in MRC-5 cells”) in [1] was found to be 4 pM. For the same molecule, the “EC50, inhibition of IL-1β-induced IL-8 production in human whole blood” value (“EC50, inhibition … in human whole blood” for short) in [2] came to 69 pM. The “In Vivo Potency EC50, inhibition of IL-6 induced in mice by human IL-1β” value (from here on “In Vivo Potency EC50, inhibition”) in [3] stood at 8 pmoles/mouse. The dissociation constant (Kd) (usually the free concentration of one partner at which half of the binding sites on the other are occupied at equilibrium, for simple one-to-one binding) in assay [4] worked out at 0.204 pM; in [5] it was 0.041 pM.

B2: 9.5.2 IgG1 (antibody, V domains shown)
VH: B1 VH
VL: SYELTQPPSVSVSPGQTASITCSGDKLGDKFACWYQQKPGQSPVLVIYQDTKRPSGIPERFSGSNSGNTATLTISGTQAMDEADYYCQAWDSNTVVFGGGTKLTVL
Take B2: the “EC50, inhibition … in MRC-5 cells” value in assay [1] was determined as 1 pM. In [2], the “EC50, inhibition … in human whole blood” value came out at 106 pM. Besides, the “In Vivo Potency EC50, inhibition” value in assay [3] worked out at 5 pmoles/mouse.

B3: 9.5.2 IgG4 (antibody, V domains shown)
VH: B1 VH
VL: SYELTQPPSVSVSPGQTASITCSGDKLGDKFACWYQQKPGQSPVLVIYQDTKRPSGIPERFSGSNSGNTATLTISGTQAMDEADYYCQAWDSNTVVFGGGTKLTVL
notes: also called mAb 9.5.2; mAb 9.5.2 (IgG4 isotype)
Take B3: in assay [6], the “% IL-6 production, supernatant 1:5 dilut.” value was 0%. Besides, the “% IL-6 production, supernatant 1:10 dilut.” value in [6] turned out to be 0%. Also, in assay [6], the “% IL-6 production, supernatant 1:20 dilut.” value worked out at 0%. Also, the “EC50, inhibition … in MRC-5 cells” value in [1] is 4 pM. Further, in assay [2], the “EC50, inhibition … in human whole blood” value came out at 135 pM. The “In Vivo Potency EC50, inhibition” value in assay [3] was 5 pmoles/mouse. The kon – broadly, the rate constant with which the complex forms – stood at 3.4e+06 M⁻¹ s⁻¹ in assay [7], 710000 M⁻¹ s⁻¹ in assay [12], 2.6e+06 M⁻¹ s⁻¹ in assay [13] and 1.1e+06 M⁻¹ s⁻¹ in [15]. Moreover, the Kd in assay [4] is 0.181 pM; in [5], 0.04 pM; in [11], 1640 pM; in [12], 1.5 pM; in [14] it was 130 pM; in assay [16], 1640 pM. Moreover, the off-rate (koff) (usually the rate constant with which the complex falls apart) was 6.1e-07 s⁻¹ in assay [8], 1.1e-06 s⁻¹ in [12], 0.00035 s⁻¹ in [13] and 0.0018 s⁻¹ in assay [15]. The binding result with IL-1β R11A mutant [9] is reported as “binds”; with IL-1β H30A mutant [10], “binds”; with IL-1β R4A mutant, “no binding”.

B4: 9.54.1 (antibody, human IgG4, V domains shown)
VH: QVQLVESGGGVVQPGRSLRLSCAASGFTFSSFGMHWVRQAPGKGLEWVAVIWYDGSNKYYADSVKGRFTISRDNSKNTLYLQMNSLRAEDTAVYYCARDPNYDILTGYYYYGMDVWGQGTTVTVS
VL: SSELTQDPAVSVALGQTVRITCQGDILRTYYASWYQQKPGQAPVLVIYGKNDRPSGIPDRFSGSSSGNTASLTITGAQAEDEADYYCDSRDNTVTHLVFGGGTKLTVL
notes: lambda; also called 9.54.2
For B4, in assay [6], the “% IL-6 production, supernatant 1:5 dilut.” value was found to be 5%; the “% IL-6 production, supernatant 1:10 dilut.” value was found to be 21%; the “% IL-6 production, supernatant 1:20 dilut.” value was determined as 36%. In addition, the “EC50, inhibition … in MRC-5 cells” value in assay [1] is 11600 pM. Besides, the dissociation constant Kd in [17] was determined as 370 pM. Further, the binding result in the assay with IL-1β R11A mutant [18] is given as “no binding”. For the same molecule, in the assay with IL-1β H30A mutant [19], the binding result is given as “no binding”. Moreover, in [20], the Kd amounted to 140 pM, the koff stood at 0.00035 s⁻¹ and the on-rate constant (kon) turned out to be 2.5e+06 M⁻¹ s⁻¹. Moreover, in [21], the Kd was 370 pM, the koff was found to be 0.00085 s⁻¹ and the kon turned out to be 2.3e+06 M⁻¹ s⁻¹.

B5: 5.5.1 (antibody, IgG4, V domains shown)
VH: QVQLVESGGGVVQPGRSLRLSCAASGFTFSSYGMHWVRQAPGKGLEWVAVIWYDGDNKYYADSVQGRFTISRDNSKNTLYLQMNSLRPEDTAVYYCARERSSSWYFDYWGQGTLVTVSS
VL: QSALTQPASVSGSPGQSITISCTGTSSDVGSYNLVSWYQQHPGKAPKLMIYEVSKRPSGISNRFSGSKSGNTASLTISGLQAEDEADYYCCSYAGSSTWVFGGGTKLTVL
notes: lambda; also called mAb 5.5.1; Ab 5.5.1
Regarding B5, in assay [6], the “% IL-6 production, supernatant 1:5 dilut.” value was determined as 1%. The “% IL-6 production, supernatant 1:10 dilut.” value in assay [6] is 3%. Also, the “% IL-6 production, supernatant 1:20 dilut.” value in [6] stood at 6%. In assay [1], the “EC50, inhibition … in MRC-5 cells” value came out at 216 pM. In addition, in assay [2], the “EC50, inhibition … in human whole blood” value came out at 1670 pM. Also, the “In Vivo Potency EC50, inhibition” value in [3] came out at 51 pmoles/mouse. Further, the Kd in assay [22] was determined as 20 pM; in assay [17], 278 pM; in [5], 19 pM; in assay [23], 44.7 pM; in assay [20] it was 180 pM; in assay [21], 278 pM. Also, the binding result is “binds” with IL-1β H30A mutant [10], “no binding” with IL-1β R4A mutant and “no binding” with IL-1β R11A mutant [18]. The koff came to 0.000704 s⁻¹ in assay [23], 0.00057 s⁻¹ in assay [20] and 0.0005 s⁻¹ in [21]. The on-rate constant (kon) in assay [23] worked out at 1.57e+07 M⁻¹ s⁻¹; in assay [20], 3.1e+06 M⁻¹ s⁻¹; in assay [21], 1.8e+06 M⁻¹ s⁻¹.
